The term Kd denotes the concentration at which binding is half-saturated. Higher therefore signals lower affinity.

Assay [1] concerns the target human SIRPα expressed on the surface of human monocyte-derived dendritic cells (human) (UniProt P78324). The assay is described as follows: flow cytometry on human monocyte-derived dendritic cells.
Assay [2] has the same target. The assay is described as follows: flow cytometry, mDC surface binding, donor/experiment 4.
For assay [3] the target is unchanged. The assay is described as follows: flow cytometry, mDC surface binding, donor/experiment 2. For orientation: A flow cytometer gives signals particle by particle.
For assay [4] the target is unchanged. The assay is described as follows: flow cytometry, mDC surface binding, donor/experiment 1.
Assay [5] has the same target. The assay is described as follows: flow cytometry, mDC surface binding, donor/experiment 3.

Sequence of human SIRPα expressed on the surface of human monocyte-derived dendritic cells (human) (P78324 31-504): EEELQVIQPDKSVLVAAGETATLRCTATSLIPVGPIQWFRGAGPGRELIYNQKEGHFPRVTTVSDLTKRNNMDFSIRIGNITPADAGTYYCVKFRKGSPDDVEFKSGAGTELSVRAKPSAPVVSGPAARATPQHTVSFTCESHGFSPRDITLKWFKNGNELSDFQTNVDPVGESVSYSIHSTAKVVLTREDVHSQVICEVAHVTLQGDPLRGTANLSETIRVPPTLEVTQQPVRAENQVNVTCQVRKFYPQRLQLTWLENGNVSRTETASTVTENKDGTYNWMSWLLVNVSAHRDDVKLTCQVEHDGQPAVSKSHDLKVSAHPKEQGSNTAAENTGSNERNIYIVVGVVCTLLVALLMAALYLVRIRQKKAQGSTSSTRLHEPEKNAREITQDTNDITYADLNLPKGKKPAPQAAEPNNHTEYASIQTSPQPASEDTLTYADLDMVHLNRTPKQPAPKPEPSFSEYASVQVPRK

B1: OSE-172 (antibody, from another filing, V domains shown)
VH: EVQLVQSGAEVKKPGESLRISCKASGYSFTSYWVHWVRQMPGKGLEWMGNIDPSDSDTHYSPSFQGHVTLSVDKSISTAYLQLSSLKASDTAMYYCVRGGTGTLAYFAYWGQGTLVTVSS
VL: DVVMTQSPLSLPVTLGQPASISCRSSQSLVHSYGNTYLYWFQQRPGQSPRLLIYRVSNRFSGVPDRFSGSGSGTDFTLKISRVEAEDVGVYYCFQGTHVPYTFGGGTKVEIKR
In turn, B1 returned a Kd in assay [1] of 0.572 nM.

B2: 14H2B-IgG4 S228P (antibody, V domains shown)
VH: EVQLVESGGGLVQPGGSLRLSCAASGIDLSSYSMIWVRQAPGKGLEWIGIIYTGGSTDYASWAKGRFTISRDNSKNTLYLQMNSLRAEDTAVYYCARENSHDTFDPWGQGTLVTVSS
VL: DIQMTQSPSSLSASVGDRVTITCQSSQSVYTNYQSWYQQKPGKAPKLLIYAASTLASGVPSRFSGSGSGTDFTLTISSLQPEDFATYYCLGSYVSSGWYYAFGGGTKVEIK
As for B2, the Kd in assay [1] stood at 0.686 nM; in assay [2], 1.33 nM; in assay [3], 0.953 nM; in assay [4], 1.48 nM; in assay [5] it was 0.99 nM.

B3: 44H-IgG4 S228P (antibody, V domains shown)
VH: EVQLVESGGGLVQPGGSLRLSCAASGFSLSSYSMIWVRQAPGKGLEWVGIIYTGSSASYASWAKGRFTISRDNSKNTLYLQMNSLRAEDTAVYYCARENSHDTFDPWGQGTLVTVSS
VL: DIQMTQSPSSLSASVGDRVTITCQSSQSVYTNYLSWYQQKPGKAPKLLIYAASTLASGVPSRFSGSGSGTDFTLTISSLQPEDFATYYCLGSYVSSGWYYAFGGGTKVEIK
The molecule B3 came in with a Kd in assay [1] of 0.672 nM. This counts as sub-nanomolar.

B4: 8H- IgG4 S228P (antibody, V domains shown)
VH: EVQLVESGGGLVQPGGSLRLSCAASGFSFSSSDYMCWVRQAPGKGLEWVGCINSGSDTTSYATWAKGRFTISRDNAKNTLYLQMNSLRAEDTAVYYCARGYGSAGANGYVIGMKYLNLWGQGTLVTVSS
VL: DIQMTQSPSSLSASVGDRVTITCQASQSIGSNLAWYQQKPGKAPKLLIYTASTLESGVPSRFSGSGSGTDFTLTISSLQPEDFATYYCQCTYGSSSSGYPFGGGTKVEIK
For B4, in assay [1], the Kd is 1.66 nM. This Kd is about 2.5-fold higher than that of the molecule before.

B5: 4E10-IgG4 S228P (antibody, V domains shown)
VH: EVQLVESGGGLVQPGGSLRLSCAASGFSLSNYEMIWVRQAPGKGLEWVGIIYVSRSTHYASWAKGRFTISRDNSKNTLYLQMNSLRAEDTAVYYCGRYLASGGFNIWGQGTLVTVSS
VL: DIQMTQSPSTLSASVGDRVTITCQASHNIYSNLAWYQQKPGKAPKLLIYDASKLASGVPSRFSGSGSGTEFTLTISSLQPDDFATYYCQSYYGNSYPFGGGTKVEIK
In turn, B5 came in with a Kd in assay [1] of 0.264 nM.

B6: 4H- IgG4 S228P (antibody, V domains shown)
VH: EVQLVESGGGLVQPGGSLRLSCAASGFSFSSYYFMCWVRQAPGKGLEWVACIDAGYSGGSHYASWAKGRFTISRDNSKNTLYLQMNSLRAEDTAVYYCARAYEYGYGGYDLWGQGTLVTVSS
VL: DIQMTQSPSSLSASVGDRVTITCQASQSIDSNLAWYQQKPGKAPKLLIYRASGLESGVPSRFSGSGSGTDFTLTISSLQPEDFATYYCQCTYGSNDSGNYANAFGGGTKVEIK
Regarding B6, in assay [1], the Kd stood at 0.0881 nM.

B7: 89H-IgG4 S228P (antibody, V domains shown)
VH: EVQLVESGGGLVQPGGSLRLSCAASGFSLSTYAMIWVRQAPGKGLEWVGIISPSGTTYYATWAKGRFTISRDNSKNTLYLQMNSLRAEDTAVYYCARAGSGGWDYFNIWGQGTLVTVSS
VL: DIQMTQSPSSLSASVGDRVTITCQASQSISSYLSWYQQKPGKAPKLLIYYASNLASGVPSRFSGSGSGTDFTLTISSLQPEDFATYYCQSYYYSNNYNWAFGGGTKVEIK
In the case of B7, the Kd in assay [1] came to 0.378 nM; in assay [2] it was 0.908 nM; in assay [3], 0.923 nM; in assay [4], 1.04 nM; in assay [5] it was 0.881 nM.

The values are drawn from patent US20230340112A1.
